Biological target: SafA_(Ntd1) (Salmonella enterica)
Test: crystal structure

In the case of SafA_(Ntd1) (domain or fragment), the stoichiometry N is reported as 2.
